B1: Protein virB8 (Agrobacterium tumefaciens (strain C58 / ATCC 33970)), P17798 (parent)
chain: MKGSEYALLVARETLAEHYKEVEAFQTARAKSARRLSKVIAAVATIAVLGNVAQAFTIATMVPLIRLVPVYLWIRPDGTVDSEVSVSRLPATQEEAVVNASLWEYVRLRESYDADTAQYAYDLVSNFSAPMVRQNYQQFFNYPNPTSPQVILGKHGRLEVEHIASNDVTPGVQQIRYKRTLIVDGKMPMASTWTATVRYEKVTSLPGRLRLTNPGGLVVTSYQTSEDTVSNAGHSEP
partner: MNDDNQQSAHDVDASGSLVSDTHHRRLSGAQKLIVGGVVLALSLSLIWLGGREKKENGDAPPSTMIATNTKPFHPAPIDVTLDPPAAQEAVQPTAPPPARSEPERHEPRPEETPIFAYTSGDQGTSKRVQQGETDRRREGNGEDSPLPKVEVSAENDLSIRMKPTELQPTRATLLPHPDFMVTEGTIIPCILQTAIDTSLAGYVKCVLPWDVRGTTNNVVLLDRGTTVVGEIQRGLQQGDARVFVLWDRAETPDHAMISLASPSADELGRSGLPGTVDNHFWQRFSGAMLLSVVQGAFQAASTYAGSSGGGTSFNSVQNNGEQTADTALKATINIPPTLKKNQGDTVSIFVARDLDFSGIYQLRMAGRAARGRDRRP

Variants of: B1
Details: with virba_agrfc virB10, P17800

Variant	effect of a mutation on the interaction
A55W	increasing interaction

From IntAct's records for PubMed 21763312
